Results from paper PMC10213050 (Nature Communications, 2023).

Assays:
hRad51;RNF20N = hRad51;RNF20N (Homo sapiens;Homo sapiens, UniProt Q06609;Q5VTR2 1-339;1-300, |); test: pull-down; ATP; RNF20N stimulates hRad51 binding and is co-captured; Pull-down: 42 mM Tris-HCl pH 7.5, 15 mM KCl, 90 mM NaCl, 2 mM ATP, 1 mM EDTA, 0.5% NP-40, 1 mM DTT, 20 ug/mL BSA, 5% glycerol, 37 C; EMSA: 42 mM MOPS pH 7.2, 3; conditions: protein: recombinant;recombinant; tags: 6xHis or GST-cleaved;GST (pGEX-6p-1); label: 5'-biotin
Srs2 = Srs2 (Saccharomyces cerevisiae (yeast), UniProt P12954 1-1174); test: pull-down; 200 nM ssDNA; Pull-down: 42 mM Tris-HCl pH 7.5, 15 mM KCl, 90 mM NaCl, 2 mM ATP, 1 mM EDTA, 0.5% NP-40, 1 mM DTT, 20 ug/mL BSA, 5% glycerol, 37 C; EMSA: 42 mM MOPS pH 7.2, 3; conditions: protein: recombinant; tags: GST (pGEX-6p-1); label: 5'-biotin
Rad51;Bre1 = Rad51;Bre1 (Saccharomyces cerevisiae …, UniProt P25454;Q07457 1-400;1-700, |); test: pull-down; ATP; Bre1 stimulates Rad51 binding and is co-captured; Pull-down: 42 mM Tris-HCl pH 7.5, 15 mM KCl, 90 mM NaCl, 2 mM ATP, 1 mM EDTA, 0.5% NP-40, 1 mM DTT, 20 ug/mL BSA, 5% glycerol, 37 C; EMSA: 42 mM MOPS pH 7.2, 3; conditions: protein: recombinant;recombinant; tags: 6xHis (pET30a) or GST-cleaved;6xHis; label: 5'-biotin
RNF20N = RNF20N (Homo sapiens, UniProt Q5VTR2 1-300); test: pull-down; RNF20N alone; Pull-down: 42 mM Tris-HCl pH 7.5, 15 mM KCl, 90 mM NaCl, 2 mM ATP, 1 mM EDTA, 0.5% NP-40, 1 mM DTT, 20 ug/mL BSA, 5% glycerol, 37 C; EMSA: 42 mM MOPS pH 7.2, 3; conditions: protein: recombinant; tags: GST (pGEX-6p-1); label: 5'-biotin
hRad51 = hRad51 (Homo sapiens, UniProt Q06609 1-339); test: pull-down; ATP; Pull-down: 42 mM Tris-HCl pH 7.5, 15 mM KCl, 90 mM NaCl, 2 mM ATP, 1 mM EDTA, 0.5% NP-40, 1 mM DTT, 20 ug/mL BSA, 5% glycerol, 37 C; EMSA: 42 mM MOPS pH 7.2, 3; conditions: protein: recombinant; tags: 6xHis or GST-cleaved; chain copies: 10; label: 5'-biotin
Rad51 = Rad51 (Saccharomyces cerevisiae (yeast), UniProt P25454 1-400); test: as above; conditions: protein: recombinant; tags: 6xHis (pET30a) or GST-cleaved; label: 5'-biotin
Bre1 = molecular target: T1, Bre1 (Saccharomyces cerevisiae (yeast), UniProt Q07457 1-700); test: pull-down; Bre1 alone; Pull-down: 42 mM Tris-HCl pH 7.5, 15 mM KCl, 90 mM NaCl, 2 mM ATP, 1 mM EDTA, 0.5% NP-40, 1 mM DTT, 20 ug/mL BSA, 5% glycerol, 37 C; EMSA: 42 mM MOPS pH 7.2, 3; conditions: protein: recombinant; tags: 6xHis; label: 5'-biotin
T1 sequence: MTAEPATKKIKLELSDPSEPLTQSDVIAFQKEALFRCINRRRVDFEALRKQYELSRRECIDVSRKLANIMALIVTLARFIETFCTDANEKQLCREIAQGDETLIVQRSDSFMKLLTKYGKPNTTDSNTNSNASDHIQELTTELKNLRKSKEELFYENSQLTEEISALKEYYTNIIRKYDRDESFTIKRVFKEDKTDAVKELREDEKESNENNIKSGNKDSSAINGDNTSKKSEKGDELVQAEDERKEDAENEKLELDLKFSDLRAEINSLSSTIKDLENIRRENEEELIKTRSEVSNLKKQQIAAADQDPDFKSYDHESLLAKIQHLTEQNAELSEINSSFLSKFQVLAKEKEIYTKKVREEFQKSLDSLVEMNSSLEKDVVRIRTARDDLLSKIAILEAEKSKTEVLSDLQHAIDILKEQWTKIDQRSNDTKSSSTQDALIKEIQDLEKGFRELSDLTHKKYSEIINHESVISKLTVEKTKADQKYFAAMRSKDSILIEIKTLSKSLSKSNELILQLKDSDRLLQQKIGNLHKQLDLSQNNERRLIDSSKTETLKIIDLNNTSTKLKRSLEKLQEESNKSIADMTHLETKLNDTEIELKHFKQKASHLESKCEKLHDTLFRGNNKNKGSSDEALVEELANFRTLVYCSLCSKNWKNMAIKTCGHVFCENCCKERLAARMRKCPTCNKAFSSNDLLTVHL

RNF20N, sequence (Q5VTR2 1-300): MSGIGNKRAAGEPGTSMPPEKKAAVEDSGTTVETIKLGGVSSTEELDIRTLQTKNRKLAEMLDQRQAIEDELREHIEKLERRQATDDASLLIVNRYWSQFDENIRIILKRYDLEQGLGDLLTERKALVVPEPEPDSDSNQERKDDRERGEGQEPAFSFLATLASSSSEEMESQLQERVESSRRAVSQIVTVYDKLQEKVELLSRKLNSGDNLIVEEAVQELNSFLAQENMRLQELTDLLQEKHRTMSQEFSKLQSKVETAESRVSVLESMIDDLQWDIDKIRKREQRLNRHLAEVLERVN
hRad51;RNF20N, sequence (Q06609 whole entry, chain 1 of 2): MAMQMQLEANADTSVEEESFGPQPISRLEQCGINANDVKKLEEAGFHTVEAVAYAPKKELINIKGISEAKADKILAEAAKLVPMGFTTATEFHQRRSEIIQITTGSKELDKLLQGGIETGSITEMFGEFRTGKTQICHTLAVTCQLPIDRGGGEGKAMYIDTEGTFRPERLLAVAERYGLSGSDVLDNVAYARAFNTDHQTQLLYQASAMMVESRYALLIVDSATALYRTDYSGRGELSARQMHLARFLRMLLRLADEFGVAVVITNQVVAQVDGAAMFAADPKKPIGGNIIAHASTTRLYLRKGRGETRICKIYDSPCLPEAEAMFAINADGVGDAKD
hRad51;RNF20N, sequence (Q5VTR2 1-300, chain 2 of 2): as the sequence (Q5VTR2 1-300) above
hRad51, sequence (Q06609 whole entry): as the sequence (Q06609 whole entry, chain 1 of 2) above
Srs2, sequence (P12954 whole entry): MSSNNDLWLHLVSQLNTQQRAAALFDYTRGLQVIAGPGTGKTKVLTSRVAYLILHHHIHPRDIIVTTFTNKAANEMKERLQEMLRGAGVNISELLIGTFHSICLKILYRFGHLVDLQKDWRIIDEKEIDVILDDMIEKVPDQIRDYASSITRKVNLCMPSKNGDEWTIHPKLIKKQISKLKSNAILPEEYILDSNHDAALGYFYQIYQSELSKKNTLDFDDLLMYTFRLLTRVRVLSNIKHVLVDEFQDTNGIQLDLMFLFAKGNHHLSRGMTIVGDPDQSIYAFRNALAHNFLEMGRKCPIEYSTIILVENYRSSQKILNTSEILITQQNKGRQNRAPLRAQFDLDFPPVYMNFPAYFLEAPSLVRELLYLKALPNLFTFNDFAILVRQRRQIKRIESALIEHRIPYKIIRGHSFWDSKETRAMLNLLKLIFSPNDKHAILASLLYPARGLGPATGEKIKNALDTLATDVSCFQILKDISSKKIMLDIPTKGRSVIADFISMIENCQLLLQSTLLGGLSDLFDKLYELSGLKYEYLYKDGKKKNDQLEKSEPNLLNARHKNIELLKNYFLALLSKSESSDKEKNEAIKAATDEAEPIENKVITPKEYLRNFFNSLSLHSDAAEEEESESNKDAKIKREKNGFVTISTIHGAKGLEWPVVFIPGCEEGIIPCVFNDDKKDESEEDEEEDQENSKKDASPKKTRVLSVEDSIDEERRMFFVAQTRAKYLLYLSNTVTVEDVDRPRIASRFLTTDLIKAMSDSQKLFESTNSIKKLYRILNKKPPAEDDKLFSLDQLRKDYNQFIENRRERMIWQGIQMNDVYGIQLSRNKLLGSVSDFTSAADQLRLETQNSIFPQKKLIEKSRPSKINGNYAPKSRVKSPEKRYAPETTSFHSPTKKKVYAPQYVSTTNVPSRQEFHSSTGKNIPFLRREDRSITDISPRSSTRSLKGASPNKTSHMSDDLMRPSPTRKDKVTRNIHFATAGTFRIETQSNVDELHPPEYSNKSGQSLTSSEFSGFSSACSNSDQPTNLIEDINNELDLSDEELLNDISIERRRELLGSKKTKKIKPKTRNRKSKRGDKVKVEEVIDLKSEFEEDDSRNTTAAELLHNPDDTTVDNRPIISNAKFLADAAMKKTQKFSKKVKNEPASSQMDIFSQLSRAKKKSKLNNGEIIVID
Rad51, sequence (P25454 whole entry): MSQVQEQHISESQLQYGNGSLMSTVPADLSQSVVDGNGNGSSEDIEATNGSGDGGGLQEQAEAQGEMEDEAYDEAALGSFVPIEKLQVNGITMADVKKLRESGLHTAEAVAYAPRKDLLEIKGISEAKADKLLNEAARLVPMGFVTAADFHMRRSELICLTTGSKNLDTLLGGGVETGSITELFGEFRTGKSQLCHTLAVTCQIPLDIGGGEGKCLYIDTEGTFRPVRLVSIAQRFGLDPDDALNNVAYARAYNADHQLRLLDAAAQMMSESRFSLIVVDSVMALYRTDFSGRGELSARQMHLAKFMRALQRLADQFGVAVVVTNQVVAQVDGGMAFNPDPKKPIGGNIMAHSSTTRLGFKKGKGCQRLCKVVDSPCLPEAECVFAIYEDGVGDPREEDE
Rad51;Bre1, sequence (P25454 whole entry, one chain of several): as the sequence (P25454 whole entry) above

B1: 90-nt ssDNA (ssDNA)
DNA: CGACAGGTCATGGCCGTACATGATATCCTCGAGCGTCCTGTTGCAACTTACACTCTGAATAGCCGAATTCTTAGGGTTAGGGTTAACA
Q: Does B1 bind (hRad51;RNF20N)?
A: Result: binds

Q: Does B1 bind (Srs2)?
A: Result: binds

Q: Does B1 bind (Rad51;Bre1)?
A: Result: binds

Q: Does B1 bind (RNF20N)?
A: Result: no binding

Q: Does B1 bind (hRad51)?
A: Result: binds

Q: Does B1 bind (Rad51)?
A: Result: binds

Q: Does B1 bind (Bre1)?
A: Result: no binding
